Reference: the supplement of paper PMC10567573
± gives the standard deviation.

Experiment: protein stability index of a GFP-peptide fusion (GPS, HEK-293T) (PSI 1-6); higher = more stable
Details: c terminus: a fixed tail appended
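Also: 24-mer peptide tiles fused after GFP, lentivirally expressed, FACS-sorted into six equal bins by GFP/DsRed ratio, decoded by Illumina sequencing, PSI is the read-weighted mean bin number.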

| Sequence | protein stability index (treatment: DMSO) | protein stability index (treatment: MLN4924 1 uM, 8 h) |
| --- | --- | --- |
| TDRGNDNWLIKYDCPMDSSSSRDT [PI4K2A] | 4.44 ± 0.2 | 4.42 ± 0.075 |
| LRRFVVRTMCAVLGLVARQEDSGL [AUP1] | 2.17 ± 0.71 | 1.91 ± 0.095 |
| SLGALDLLGPATGCLLDDGLEGLF [SERTAD1] | 2.6 ± 0.24 | 2.57 ± 0.32 |
| KQRLMENTEDWRPRPGTGQSRSFR [PDLIM7] | 4.18 ± 0.2 | 4.418 ± 0.008 |
| VPEEPPVKKLMRTSTPPPASVINN [ZBED1] | 4.89 ± 0.29 | 4.94 ± 0.19 |
| NIYENGDVCISILHPPVDDPQSGE [UBE2R2] | 4.37 ± 0.1 | 4.55 ± 0.087 |
| EDDALSDKHGCPAYVSPEILNTTG [TRIB1] | 4.97 ± 0.24 | 4.95 ± 0.072 |
| VVKQFVTGIIDSLTISPKAARVGL [MATN2] | 2.15 ± 0.34 | 3.15 ± 1.4 |
| EEIKKLTTDPDLILEVLRSSPMVQ [LARP4] | 2.39 ± 0.7 | 2.64 ± 0.64 |
| WDPSVQSCKEGLSPRGPAPGEEKF [ZNF263] | 5.43 ± 0.1 | 5.46 ± 0.092 |
| EQATSLAILRVIRLVRVFRIFKLS [KCNA1] | 2.42 ± 0.63 | 2.7 ± 0.26 |
| FQTLQAIVSHFQKLFDVPSLNGVY [CEP70] | 2.36 ± 0.36 | 2.36 ± 0.4 |
| FEFLYNALEFWRQEELTRINQSFT [IQUB] | 2.13 ± 0.54 | 2.45 ± 0.74 |
| HILAKNYFSQVPVLASFILDDGEI [IQUB] | 2.2 ± 0.51 | 1.96 ± 0.42 |
| EVHRLIEGKAPIISGVTKAISSPT [TPPP] | 3.42 ± 0.18 | 3.84 ± 0.28 |
| MQRPYDSRTCIGSSHSRGPLSWAP | 3.1 ± 0.31 | 2.94 ± 0.05 |
| KKAEQKKKEKIIEDKTFGLKNKKG [ZC3H15] | 4.8 ± 0.31 | 4.92 ± 0.1 |
| YHPEEFVCSQCGKVLEEGGFFEEK [PDLIM7] | 3.94 ± 0.5 | 3.93 ± 0.57 |
| GTLTPRMTTDFDLSLDNSPLLQSI [TRIM9] | 3.43 ± 0.28 | 3.48 ± 0.36 |
| HSRKTVLIKTIETRNGEVVTESQK [PRPH] | 4.71 ± 0.27 | 4.8 ± 0.32 |
| HNRYTENSLRGVILDIHFLSQADF [FUT8] | 2.55 ± 0.67 | 2.41 ± 0.43 |
| KHSSTSSRIAKGGVDHTKMSLHGA [BTBD10] | 3.66 ± 0.19 | 3.79 ± 0.19 |
| SEADSEAGELRKPTQEEWRQVVDI [PPEF2] | 5.45 ± 0.15 | 5.46 ± 0.34 |

| Sequence | protein stability index (treatment: DMSO) | protein stability index (treatment: MLN4924 1 uM, 8 h) |
| --- | --- | --- |
| GGVCCTVTLNFNVPGEFKQDVTVV [GFOD1] | 2.94 ± 0.25 | 2.99 ± 0.16 |
| EPEPAEVTSTSQSPHSPDSSQSSL [DDIT3] | 5.48 ± 0.15 | 5.58 ± 0.13 |
| GKEVKVNWATTPSSQKKDTSSSTV [TIA1] | 4.76 ± 0.21 | 4.92 ± 0.36 |
| QKRETLSPLCLIPMVTSPREEQQL [KCTD13] | 3.98 ± 0.18 | 4.08 ± 0.15 |
| VAGNPQDTRLRYSFFVPRPTPSTP [ADAMTS4] | 3.11 ± 0.36 | 3.18 ± 0.25 |
| DVHNRIVIRGLNTIPLFVQLLYSP [CTNNB1] | 2.58 ± 0.58 | 2.73 ± 0.5 |
| SRLTPGGKAAQAGVAVGDWVLSID [PDLIM7] | 2.63 ± 0.29 | 3.02 ± 0.61 |
| ASVINNMLAEIFCQTGGVEDQEEW [ZBED1] | 3.31 ± 0.31 | 3.89 ± 0.33 |
| ASKMESTIKPRRVEPVCSGLQAQI [CHCHD6] | 3.47 ± 0.17 | 3.6 ± 0.24 |
| KALQMLLSQPVTYQAFRECTLETT [BCL2L13] | 3.24 ± 0.35 | 2.79 ± 0.42 |
| CNCALEELRLVFGPLGDQLHAQLR [ELF3] | 2.46 ± 0.86 | 2.33 ± 0.38 |
| SDNSWVLAGSESLPVETLGPASRM [PBXIP1] | 3.83 ± 0.15 | 4.02 ± 0.5 |
| DKKVRTIIIRSEVPGIFCAGADLK [AUH] | 2.12 ± 0.27 | 2.11 ± 0.38 |
| TITIGMFPAVTVEVKSSIAGSSTW [SLC29A1] | 2.58 ± 0.6 | 2.4 ± 0.5 |
| VCLMGHERRQTLNLISLLALRVLA [TENT5C] | 2.72 ± 0.56 | 2.5 ± 0.37 |
| AKQIMEETYKMEFMYSGVENKQVV [INTS4] | 2.23 ± 0.31 | 2.65 ± 0.61 |
| IWAQGWVPAAGGPAPKRGYSSEMK [AUH] |  | 2.9 ± 0.29 |
| IESLNEELAYMKKNHEEEMKEFSN [KRT13] | 4.88 ± 0.38 | 5.06 ± 0.3 |
| DIIRKQVLGTKVDAERDGVKVPTT [CDC34] | 4.2 ± 0.34 | 4.23 ± 0.17 |
| SQSSASQPRLSYAEMAEDYPRYPD [CLCN6] | 4.83 ± 0.14 | 4.86 ± 0.13 |
| KREREVDEDSEPEREVRAKNGRVD [USP39] | 5.46 ± 0.081 | 5.69 ± 0.12 |
| GSRLAEFGAAGVNRLSIGLQSLDD [RSAD1] | 4.22 ± 0.48 | 4.09 ± 0.34 |
| KLWDLRTTKCVRQYEGHVNEYAYL [DCAF4] | 2.38 ± 0.21 | 2.27 ± 0.22 |

| Sequence | protein stability index (treatment: DMSO) | protein stability index (treatment: MLN4924 1 uM, 8 h) |
| --- | --- | --- |
| HGLWDSLVYDVEVKSHLLDYVMTT [TRIP13] | 2.28 ± 0.32 | 2.2 ± 0.34 |
| WEFKLSDPDEVARRWGKRKNKPKM [ETS1] | 3.65 ± 0.27 | 3.67 ± 0.067 |
| TISEFILSEDYNKMTPVKNYQAHQ [WDFY2] | 2.66 ± 0.16 | 2.78 ± 0.14 |
| AQSGERECHIVVLTDDDVVDWDEE [BTBD10] | 5.205 ± 0.041 | 5.14 ± 0.28 |
| PHEDHVFLVANFSQIETLTSVFQK [MATN2] | 2.25 ± 0.24 | 2.35 ± 0.16 |
| ATLKGPDSHYGTKGLKKVVHETPA [BTBD1] | 4.21 ± 0.34 | 4.543 ± 0.04 |
| DPSTGCYMYYFQYLSKTYCVDATR [KMT5A] | 2.25 ± 0.34 | 2.18 ± 0.61 |
| KKAPQPAKPRLAERMTTREKKVLE [HDAC6] | 4.58 ± 0.18 | 4.81 ± 0.39 |
| PEPEDEPGGPGAMTESLEASEFLE [RSPH3] | 5.7 ± 0.12 | 5.48 ± 0.2 |
| EPAGGGRSREARSRLLLLEQELKT [SMAD6] | 4.63 ± 0.44 | 4.87 ± 0.088 |
| ACRRRDALTGHLRTHSVIKEETNH [IKZF1] | 4.01 ± 0.76 | 3.76 ± 0.89 |
| ARELQEALPEAPAPLLPHITATSL [BCL2L13] | 4.32 ± 0.4 | 4.32 ± 0.22 |
| ASTVLKSVGFQSNEAASLASTGVG [SLC2A12] | 4.16 ± 0.3 | 4.15 ± 0.35 |
| RKEMATILSKMPKPKPPPNSEGEQ [CCNC] | 5.06 ± 0.34 | 5.06 ± 0.19 |
| LWEALCSQGAISEGAQRDRFPGRK [C22orf31] | 3.11 ± 0.12 | 3.3 ± 0.32 |
| ACCEFLESQLDPSNCLGIRDFAET [KLHL12] | 2.79 ± 0.37 | 3 ± 0.5 |
| VFEYCDHTLLNELERNPNGVADGV [CDKL4] | 3.89 ± 0.57 | 4.03 ± 0.55 |
| LHAPPAFYSTSSGLANGLQLLCPW [VENTX] | 2.32 ± 0.1 | 2.27 ± 0.26 |
| ENRALQQLLEQKQAYWAQAEDTAA [CBY2] | 4.3 ± 0.21 | 4.4 ± 0.21 |
| TDCGKAFLKKSQLTEHKRIHTGKK [ZNF649] | 3.62 ± 0.5 | 3.48 ± 0.42 |
| RPVAPRRPRDAVGQRGAQGAGRRR [SMAD6] | 5.27 ± 0.23 | 5.43 ± 0.14 |
| STSSSFPSSFPSSSSSSSSSCYPL [MAGEA10] | 3.73 ± 0.11 | 3.82 ± 0.32 |
| LTDDKQVLNTQGQKTSGQHMIQGA [DLC1] | 5.06 ± 0.2 | 5.04 ± 0.14 |

| Sequence | protein stability index (treatment: DMSO) | protein stability index (treatment: MLN4924 1 uM, 8 h) |
| --- | --- | --- |
| EVSSPPDTTEEVDHKPKLCRLAKG [PDZK1] | 5.11 ± 0.45 |  |
| LHCYRDRPHEVLLCSDLVKAYQRC [CHCHD6] | 2.16 ± 0.36 | 2.19 ± 0.24 |
| RQLVEADINGLRRILDELTLCKAD [KRT36] | 3.2 ± 0.24 | 3.32 ± 0.26 |
| EQHGKKVPTVSRPYSFIEFDTFIQ [SEC22B] | 2.75 ± 0.28 | 2.95 ± 0.26 |
| MTMIVSLAAVAWVGQQVHNLLLTY [ARL6IP1] | 3.31 ± 0.37 | 3.25 ± 0.32 |
| YMYLVIEELTREAVAVDVAVPKRL [HAGHL] | 2.57 ± 0.57 | 2.71 ± 0.41 |
| KDVRRHLVVHTGCKDFLCQFCAQR [PLAGL1] | 3.44 ± 0.08 | 3.55 ± 0.21 |
| KKIYEAKRFTDAGFEHYDLFFIDG [CDC14A] | 2.36 ± 0.29 | 2.34 ± 0.23 |
| APAQRATRGFLRSPSSDLDTDAEG [RETREG3] | 5.44 ± 0.13 | 5.14 ± 0.18 |
| SRCRKLVEYFQQSAVAMYMLYEKQ [ZBED1] | 2.44 ± 0.65 | 2.13 ± 0.22 |
| LPILGHRDYKIQASRTWCFYNTED [PTGFR] | 2.41 ± 0.31 | 2.53 ± 0.33 |
| LFPVFLATDYLRYKPVVLLQGLSL [SLC19A2] | 2.88 ± 0.41 | 2.84 ± 0.72 |
| TKEEGLALAREFSCPFFETSAAYR [RIT1] | 3.15 ± 0.29 | 3.13 ± 0.15 |
| AVEAGQEECAKWLLLNNANPNLSN [RIPK4] | 3.82 ± 0.25 | 4.26 ± 0.47 |
| IFRNLCQMQEDNSSFSLLLDLLSE [INTS3] | 2.61 ± 0.28 | 2.51 ± 0.37 |
| SWSAGLHNRYTENSLRGVILDIHF [FUT8] | 2.88 ± 0.67 | 2.86 ± 0.73 |
| RRLGLSTLGELKQNLSRSWHDVQV [TPD52L2] | 2.9 ± 0.24 | 2.96 ± 0.24 |
| WDSGCLAPPSTRTSHSLPESSVPS [PLEKHN1] | 4.4 ± 0.59 | 4.64 ± 0.23 |
| MDLLTQSLGVDTLPPPDPNPPRAE [APBB1IP] | 4.85 ± 0.2 | 4.87 ± 0.14 |
| RRILDELTLCRSDLEAQMESLKEE [KRT33B] | 4.56 ± 0.14 | 4.66 ± 0.11 |
| RYGCGHRGCGDGCCCPSCYRRYRF [KRTAP19-2] | 3.29 ± 0.27 | 3.62 ± 0.54 |
